Residue numbers refer to the chain shown, from its start. Values belong to the binder of their own block, whether it stands above or below them.
Experiments:
hCTLA4-hFc [1] = target: T1, hCTLA4-hFc (human, UniProt P16410 36-161); test: blocking ELISA, coated antibody, biotin hCTLA4-hFc, competitor hCD80-Fc
T1 construct: also called hCTLA4-Fc protein; biotinylated hCTLA4-hFc; not shown: hFc (human Fc)
T1 sequence (looked up): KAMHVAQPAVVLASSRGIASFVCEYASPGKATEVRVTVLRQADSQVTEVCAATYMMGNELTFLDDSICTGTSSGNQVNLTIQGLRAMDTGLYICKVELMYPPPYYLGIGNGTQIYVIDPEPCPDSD
Procedure: (§1) The purified antibodies were coated on 96-well plates (Corning, catalog #9018) followed by incubation overnight at 4° C., and were blocked with 5% skimmed milk powder (Oxoid, catalog #LP0031B) for 2 hours at 37° C. […] The plates were washed with PBST and incubated with HRP-labeled streptavidin (BD, catalog #554066) for 1 hour at room temperature. The plates were washed and developed by adding TMB.

[2] = target: T2, biotin-labeled mouse CTLA4-His (SinoBiological, catalog #50503-M08H) (mouse, UniProt P09793 36-162, biotin-labeled (site not stated)); test: ELISA, coated antibody, biotin mouse CTLA4-His
T2 construct: not shown: His tag
Procedure: (§2) Species cross reactions of the purified antibodies were detected using ELISA. The quantified purified antibodies were coated on 96-well plates (Corning, catalog #9018) followed by incubation overnight at 4° C., and were blocked with 5% skimmed milk powder (Oxoid, catalog #LP0031B) for 2 hours at 37° C. The biotin-labeled mouse CTLA4-His (SinoBiological, catalog #50503-M08H) or monkey CTLA4-Fc (SinoBiological, catalog #90213-C02H) was added to the plates and incubated for 1 hour at room temperature. The plates were washed three times with PBST and incubated with 1/1000 diluted HRP-labeled streptavidin (BD, catalog #554066) for 1 hour at room temperature. The plates were washed and developed by adding TMB.

[3] = target: T3, monkey CTLA4-Fc (SinoBiological, catalog #90213-C02H) (monkey, UniProt G7PL88 36-161, Probably biotin-labeled (detected with HRP-streptavidin). Fused to an Fc that is not given in letters.); test: ELISA, coated antibody, monkey CTLA4-Fc
T3 construct: Detected with streptavidin, so read as biotin-labeled like the mouse protein
T3 sequence: T1 sequence (looked up) with S14N, I18T, L106M
Procedure: as §2

hCTLA4-hFc [4] = target: T1, hCTLA4-hFc; test: blocking ELISA, coated antibody, biotin hCTLA4-hFc, competitor hCD86-Fc
Procedure: as §1

hCTLA4-hFc [5] = target: T1, hCTLA4-hFc; test: ELISA, coated hCTLA4-hFc
Procedure: ELISA was used for detecting the binding of purified antibodies to CTLA4-hFc. […] The plates were washed with PBST (PBS containing 0.05% of Tween-20) three times, and were blocked with 5% skimmed milk powder (Oxoid, catalog #LP0031B) for 2 hours at 37° C. The plates were washed three times with PBST and were incubated for 1 hour at room temperature with antibodies to be detected. The plates were washed three times and incubated for 1 hour at room temperature with 1/5000 diluted HRP-labeled goat anti-mouse IgG secondary antibodies (Invitrogen, catalog #31432). The plates were washed with PBST and were developed by adding TMB.

hCTLA4-hFc [6] = target: T1, hCTLA4-hFc; test: competition ELISA: biotin-labeled CTLA4-hFc pre-incubated with graded chimeric antibody, captured on coated Ipilimumab (2 ug/mL)
Procedure: The plates were washed three times with PBST and incubated with 1/1000 diluted HRP-labeled streptavidin (BD, catalog #554066) for 1 hour at room temperature. The plates were washed and developed by adding TMB.

[7] = target: T4, hCTLA4-mFc fusion protein (human, UniProt P16410 36-161); test: BLI (Octet-96), CTLA4-mFc on AMC sensor, antibody 3-200 nM, 1:1 global fit
T4 construct: Captured on AMC (anti-mouse Fc capture) sensors in the Octet assay; not shown: mFc (mouse Fc)
T4 sequence (looked up): T1 sequence (looked up)
Procedure: The kinetic constants (kassoc and kdissoc) of binding of the antibody and the antigen were measured using the biomolecular interaction system Octet-96 (Pall Life Sciences, S-000959), and the equilibrium binding constant KD was further calculated. […] Specifically, AMC sensors were pre-wet in the buffer (PBS containing 0.02% Tween-20 and 0.1% BSA) for 10 minutes and then equilibrated in CTLA4-mFc sample buffer for 5 minutes to such that the CTLA4-mFc proteins were coupled to the surfaces of sensors. The CTLA4-mFc-coupled AMC sensors were first equilibrated in the buffer for 2 minutes and then incubated for 5 minutes in buffer containing different concentrations of antibody (3-200 nM) to measure the binding of antibodies to the CTLA4-mFc protein. Finally, the antigen and antibody-bound sensors were repositioned in the sample buffer and waited for 10 minutes to measure the dissociation of antibodies from the CTLA4-mFc proteins. The measured data were globally fitted using a 1:1 model to obtain kinetic constants of binding and dissociation. On this basis, an equilibrium binding constant KD was further obtained.

[8] = target: T5, human CTLA4 on the cell surface (human, UniProt P16410 36-223); test: FACS on 293T-hCTLA4 cells
T5 construct: whole, on cells; also called CTLA4 on the surface of human T cells
T5 sequence (looked up): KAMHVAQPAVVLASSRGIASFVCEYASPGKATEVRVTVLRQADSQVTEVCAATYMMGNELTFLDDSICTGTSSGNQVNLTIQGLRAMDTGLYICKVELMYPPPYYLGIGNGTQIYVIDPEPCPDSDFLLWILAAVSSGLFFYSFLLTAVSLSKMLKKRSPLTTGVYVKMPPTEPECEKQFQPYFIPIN
Procedure: The purified antibodies to be detected were added to wells at a certain concentration (50 μL/well) and incubated for 1 hour at 4° C. The cells were washed three times with buffer and were incubated for 0.5 hour at 4° C. with PE-labeled fluorescent secondary antibodies. The cells were washed three times with FACS buffer and re-suspended to 200 μL/well. The fluorescence signals were detected using Attune Nxt flow cytometer (Thermo Fisher).

IC50 (hCTLA4-hFc [1]): 0.0357 µg/mL
ELISA (OD) [2]: 0.06 OD
ELISA (OD) [3]: 0.64 OD
IC50 (hCTLA4-hFc [4]): 3.15 µg/mL
EC50 (hCTLA4-hFc [5]): 0.036 nM
B1: murine anti-CTLA4 monoclonal antibody 19C5-G11-A7-G5 (antibody, V domains shown)
VH: EVQLQQSGTVLARPGASVKMSCKASGYSFTSYWIHWVKQRPGQGLEWIGAFYPGNSDTNYNQNFKGKAKLTAVTSASTAYMELSSLTNEDSAVYYCTYYYRSSYAMDNWGQGTSVTVSS
VL: DIQMNQSPSSLSASLGDTITITCHASQNINDWLSWYQQKPGNIPKLLIYKASNLHTGVPSRFSGSGSGTGFTLTISSLQPEDIATYYCQQGQSYPLTFGSGTKLEIK
notes: Mouse hybridoma antibody purified on Protein A

EC50 [8]: 1.08 nM
IC50 (hCTLA4-hFc [1]): 0.00292 µg/mL
ELISA (OD) [2]: 0.06 OD
ELISA (OD) [3]: 0.37 OD
IC50 (hCTLA4-hFc [4]): 1.08 µg/mL
EC50 (hCTLA4-hFc [5]): 0.025 nM
B5: murine anti-CTLA4 monoclonal antibody 9B8-H2-B6-G5 (antibody, V domains shown)
VH: QVQLQQPGSELVRPGASVKLSCKASGYTFTNYWVHWVKQRPGQGLEWIGNIFPGSDTSNYDEKFISKATLTVDTSSSAAYMQLNSLTSEDSAVYYCARLAYFTNYGGAMDYWGRGTSVTVSS
VL: DIVLTQSPASLVVSLGQRATISCRASKSVSTSAYNYMHWYQQKPGQPPKLLIYLASNLESGVPARFSGSGSGTDFTLNVHPVEEEDAATYYCQLSRELPYTFGGGTKLEIK
notes: as for B1

The remaining lines, values behind:

B2: human-mouse CTLA4 chimeric antibody 4H9-G5-D5-B1 (antibody, V domains shown)
VH: EVKLDETGGGLVQPGRSMKLSCVVSGFTFSDNWMNWVRQSPEKGLEWVAQIRNKPYNFETYYSDSVKGRFTISRDDSKSTVYLQMNNLRAEDMGVYYCTGGFTYWGQGTLVTVSA
VL: DIQMTQSPASLSASVGETVTITCGASENIYGGLNWYQRKQGKSPQLLIYGATNLAEGMSSRFSGSGSGRQYSLKISSLHPDDVATYYCQNVLSSPWTFGGGTKLEIK
IC50 (read off the curve) (hCTLA4-hFc [6]): ~0.03 µg/mL
Kd [7]: < 0.001 nM

B3: murine anti-CTLA4 monoclonal antibody 4H9-G5-D5-B1 (antibody, V domains shown)
VH: B2 VH
VL: B2 VL
notes: as for B1
EC50 [8]: 1.35 nM
IC50 (hCTLA4-hFc [1]): 0.0691 µg/mL
ELISA (OD) [2]: 0.05 OD
ELISA (OD) [3]: 2.79 OD
IC50 (hCTLA4-hFc [4]): 7.24 µg/mL
EC50 (hCTLA4-hFc [5]): 0.023 nM

B4: human-mouse CTLA4 chimeric antibody 9B8-H2-B6-G5 (antibody, V domains shown)
VH: B5 VH
VL: B5 VL
IC50 (read off the curve) (hCTLA4-hFc [6]): ~0.2 µg/mL
Kd [7]: 0.0868 nM
